Test results reported in patent US20120122783A1 (INDIANA UNIVERSITY RESEARCH AND TECHOLOGY, published 2012).
Where two headings read alike, the source gives them in different places. Blank lines part the entries; values can stand above or below the molecule they belong to. Square brackets hold non-standard residues; d marks the D form. Ends that are not written are not given here. PhLac = O=C(O)[C@@H](O)Cc1ccccc1

Legend:
human GLP-1 receptor = human GLP-1 receptor (human, UniProt P43220 24-463); test: cell-based or functional assay
human glucagon receptor [1] = target: T1, human glucagon receptor (human, UniProt P47871 26-477); test: cell-based or functional assay
T1 sequence (P47871 26-477): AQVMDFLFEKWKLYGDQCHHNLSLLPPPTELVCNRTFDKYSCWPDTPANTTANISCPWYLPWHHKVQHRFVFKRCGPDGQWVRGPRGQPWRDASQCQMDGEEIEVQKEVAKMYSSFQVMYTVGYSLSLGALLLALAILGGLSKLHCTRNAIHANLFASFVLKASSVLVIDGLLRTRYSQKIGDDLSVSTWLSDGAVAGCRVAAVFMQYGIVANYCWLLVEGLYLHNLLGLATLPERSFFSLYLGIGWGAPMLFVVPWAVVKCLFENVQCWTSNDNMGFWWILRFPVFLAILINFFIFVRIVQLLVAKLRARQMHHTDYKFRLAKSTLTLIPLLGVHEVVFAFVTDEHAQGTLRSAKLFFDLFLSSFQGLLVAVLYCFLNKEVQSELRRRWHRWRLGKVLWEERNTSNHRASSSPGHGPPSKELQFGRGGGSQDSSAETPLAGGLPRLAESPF

human glucagon receptor [2] = target: T1, human glucagon receptor; test: SPA competition vs 125I-glucagon, receptor membranes
human glucagon receptor [3] = target: T1, human glucagon receptor; test: cell-based or functional assay; remark: listed apart in the source
human glucagon receptor [4] = target: T1, human glucagon receptor; test: cell-based or functional assay; remark: listed apart in the source
human glucagon receptor [5] = target: T1, human glucagon receptor; test: cell-based or functional assay; remark: listed apart in the source
human glucagon receptor [6] = target: T1, human glucagon receptor; test: cell-based or functional assay; remark: listed apart in the source
human glucagon receptor [7] = target: T1, human glucagon receptor; test: cell-based or functional assay; remark: listed apart in the source
human glucagon receptor [8] = target: T1, human glucagon receptor; test: cell-based or functional assay; remark: listed apart in the source
human glucagon receptor [9] = target: T1, human glucagon receptor; test: cell-based or functional assay; remark: listed apart in the source

cAMP Induction EC50 (human GLP-1 receptor): 3.21 nM
cAMP Induction EC50 (human glucagon receptor [1]): 2.77 nM
Molecule: Oxyntomodulin KRNR (peptide)

IC50 (human glucagon receptor [2]): 130 nM
cAMP Induction EC50 (human glucagon receptor [1]): 1180 nM
Molecule: [desHis^1, desPhe^6] Glucagon-NH2 (peptide)

IC50 (nM) (cAMP, inhibit 0.8 mM Glucagon) (human glucagon receptor [3]): 84.4 nM
B1: [PLA^4, E^9]Glucagon(aa4-29)-NH2 (peptide)
peptide: [PhLac]TFTSEYSKYLDSRRAQDFVQWLMNT-NH2
modifications: N-terminus assumed
SMILES: CSCC[C@H](NC(=O)[C@H](CC(C)C)NC(=O)[C@H](Cc1c[nH]c2ccccc12)NC(=O)[C@H](CCC(N)=O)NC(=O)[C@@H](NC(=O)[C@H](Cc1ccccc1)NC(=O)[C@H](CC(=O)O)NC(=O)[C@H](CCC(N)=O)NC(=O)[C@H](C)NC(=O)[C@H](CCCNC(=N)N)NC(=O)[C@H](CCCNC(=N)N)NC(=O)[C@H](CO)NC(=O)[C@H](CC(=O)O)NC(=O)[C@H](CC(C)C)NC(=O)[C@H](Cc1ccc(O)cc1)NC(=O)[C@H](CCCCN)NC(=O)[C@H](CO)NC(=O)[C@H](Cc1ccc(O)cc1)NC(=O)[C@H](CCC(=O)O)NC(=O)[C@H](CO)NC(=O)[C@@H](NC(=O)[C@H](Cc1ccccc1)NC(=O)[C@@H](NC(=O)[C@@H](O)Cc1ccccc1)[C@@H](C)O)[C@@H](C)O)C(C)C)C(=O)N[C@@H](CC(N)=O)C(=O)N[C@H](C(N)=O)[C@@H](C)O

cAMP Inhibition IC50 (human glucagon receptor [4]): 128 nM
cAMP (I/A)50, inhibition index (human glucagon receptor [5]): 1380 ratio
Molecule: GTFTSEYSKYLDSRRAQDFVQWLMNT-NH2 [[Glu^9]Glucagon(aa4-29)-NH2]

IC50 (nM) (cAMP, inhibit 0.8 mM Glucagon) (human glucagon receptor [3]): 64.8 nM
Glucagon antagonism IC50(nM, inhibit 0.5 nM G) (human glucagon receptor [6]): 23.8 nM
Molecule: [PhLac]TSEYSKYLDSRRAQDFVQWLMNT-NH2 [[PLA6, E9]Glucagon(aa6-29)-NH2]

cAMP Induction EC50 (human glucagon receptor [7]): 0.81 nM
cAMP Induction EC50 (human GLP-1 receptor): 0.41 nM
Molecule: HSQGTFTSDYSRYLDSRRAQDFVQWLMNK [Glucagon R12 K29]

cAMP IC50 (human glucagon receptor [8]): 97.2 nM
cAMP Inhibition IC50 (human glucagon receptor [4]): 97 nM
cAMP (I/A)50, inhibition index (human glucagon receptor [5]): 486 ratio
Molecule: FTSEYSKYLDSRRAQDFVQWLMNT-NH2 [[Glu^9]Glucagon(aa6-29)-NH2]

Glucagon antagonism IC50(nM, inhibit 0.5 nM G) (human glucagon receptor [6]): 9.03 nM
IC50 (nM) (cAMP, inhibit Glucagon) 0.1 nM or 0.2 nM (human glucagon receptor [9]): 1.32 nM
B2: [PLA6, D9, D28]Glucagon(aa6-29)-NH2 (peptide)
peptide: FTSDYSKYLDSRRAQDFVQWLMDT
modifications: N-terminal residue is phenyl lactic acid (PLA) in place of Phe 6; C-terminal amide
